Laboratory results from patent US9555139B2, “Binding ligand linked drug delivery conjugates of tubulysins” (Endocyte, Inc., priority 2007, dated 2017).

Legend:
Human serum stability = assay type: in vitro ADME
Source text: METHOD: Human serum stability.

[1] = Body weight change of Balb/c mice at doses above therapeutic doses (FIG. 14); conditions: intravenous, three times in one week (FIG. 14)
Protocol: METHOD: Toxicity as Measured by Weight Loss. The percentage weight change of the mice was determined in mice (5 mice/group) on selected days post-tumor inoculation (PTI), and graphed.
Each dose was administered three times, every other day, as indicated by the arrows. EC0305 was administered at (Δ) 2 μmol/kg TIW; (∇) 2.5 μmol/kg TIW; and (□) 3 μmol/kg.

[2] = Serum binding against different species; assay type: in vitro ADME; conditions: human, dog, Balb/c mouse, rat, rabbit, fetal calf serum
Protocol: (§1) METHOD: Serum binding against different species. Compounds are tested with 30K NMWL, subjected to Microcon filtration (10,000 g for 30 minutes), and compounds are detected by HPLC.

[3] = Toxicity as measured by weight loss / organ evaluation in tumor-bearing mice; assay type: in vivo
Protocol: METHOD: Drug Toxicity determinations. Persistent drug toxicity was assessed by collecting blood via cardiac puncture and submitting the serum for independent analysis of blood urea nitrogen (BUN), creatinine, total protein, AST-SGOT, ALT-SGPT plus a standard hematological cell panel at Ani-Lytics, Inc. (Gaithersburg, Md.). In addition, histopathologic evaluation of formalin-fixed heart, lungs, liver, spleen, kidney, intestine, skeletal muscle and bone (tibia/fibula) were conducted by board-certified pathologists at Animal Reference Pathology Laboratories (ARUP; Salt Lake City, Utah).
METHOD: Toxicity as Measured by Weight Loss.

[4] = Serum binding, human serum; assay type: in vitro ADME
Protocol: as §1

folate receptors (FRs) = target: T1, folate receptors (FRs) (Homo sapiens, UniProt P15328); assay: Relative affinity assay (3H-folic acid displacement on KB cells); assay type: binding; conditions: 10% serum/FDRPMI; folic acid set to 1
T1 construct: FR-positive KB cells were heavily seeded into 24-well cell culture plates; endogenous in cells; host or cells: KB cells
T1 sequence (P15328 25-234): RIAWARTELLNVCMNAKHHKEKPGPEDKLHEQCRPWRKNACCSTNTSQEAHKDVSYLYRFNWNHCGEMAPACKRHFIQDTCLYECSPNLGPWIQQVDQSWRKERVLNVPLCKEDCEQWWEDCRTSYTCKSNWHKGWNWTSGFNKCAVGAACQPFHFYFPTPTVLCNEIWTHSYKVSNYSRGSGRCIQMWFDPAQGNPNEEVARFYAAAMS
Protocol: METHOD: Relative Affinity Assay. The affinity for folate receptors (FRs) relative to folate was determined according to a previously described method (Westerhof, G. R., J. H. Schornagel, et al. (1995) Mol. Pharm. 48: 459-471) with slight modification. Briefly, FR-positive KB cells were heavily seeded into 24-well cell culture plates and allowed to adhere to the plastic for 18 h. Spent incubation media was replaced in designated wells with folate-free RPMI (FFRPMI) supplemented with 100 nM ^3H-folic acid in the absence and presence of increasing concentrations of test article or folic acid. Cells were incubated for 60 min at 37° C. and then rinsed 3 times with PBS, pH 7.4. Five hundred microliters of 1% SDS in PBS, pH 7.4, were added per well. Cell lysates were then collected and added to individual vials containing 5 mL of scintillation cocktail, and then counted for radioactivity. Negative control tubes contained only the ^3H-folic acid in FFRPMI (no competitor). Positive control tubes contained a final concentration of 1 mM folic acid, and CPMs measured in these samples (representing non-specific binding of label) were subtracted from all samples.

s.c. tumors = assay: Inhibition of tumor growth in mice (tumor model not stated, FIG. 9 and 11); assay type: in vivo; conditions: tolerable and highly toxic dose levels (0.1, 0.2, 0.5 μmol/kg TIW), dosing terminated early
Protocol: METHOD: Inhibition of Tumor Growth in Mice. Four to seven week-old mice (Balb/c or nu/nu strains) were purchased from Harlan Sprague Dawley, Inc. (Indianapolis, Ind.). Normal rodent chow contains a high concentration of folic acid (6 mg/kg chow); accordingly, mice used were maintained on the folate-free diet (Harlan diet #TD00434) for 1 week before tumor implantation to achieve serum folate concentrations close to the range of normal human serum. For tumor cell inoculation, 1×10^6 M109 cells (Balb/c strain) or 1×10^6 KB cells (nu/nu strain) in 100 μL were injected in the subcutis of the dorsal medial area. Tumors were measured in two perpendicular directions every 2-3 days using a caliper, and their volumes were calculated as 0.5×L×W^2, where L=measurement of longest axis in mm and W=measurement of axis perpendicular to L in mm. […] Dosing solutions were prepared fresh each day in PBS and administered through the lateral tail vein of the mice.

## CCCC(=O)OCN(C(=O)[C@@H](NC(=O)[C@H]1CCCCN1C)C(C)CC)[C@H](C[C@@H](OC(C)=O)c1nc(C(=O)N[C@@H](Cc2ccc(O)cc2)C[C@H](C)C(=O)NNC(=O)OCCSSC[C@H](NC(=O)[C@H](CC(=O)O)NC(=O)[C@H](CCCNC(=N)N)NC(=O)[C@H](CC(=O)O)NC(=O)CC[C@H](NC(=O)c2ccc(NCc3cnc4nc(N)[nH]c(=O)c4n3)cc2)C(=O)O)C(=O)O)cs1)C(C)C (stereo partly drawn) [EC0305]
Human serum stability
  half-life: ~20 h
[1]
  dose at which toxicity begins, as determined by changes in weight: ≥ 2.5 µmol/kg
[2]
  serum binding in various species: low serum binding
[3]; Balb/c mice with M109 tumors (FIG. 8)
  weight loss or major organ tissue degeneration: apparent absence of weight loss or major organ tissue degeneration
[3]; M109 tumor mice (FIG. 13), 2 μmol/kg TIW, 2 wks
  gross toxicity as determined by changes in weight: not accompanied by any observed gross toxicity
[3]; nu/nu mice with KB tumors (FIG. 6)
  weight loss or major organ tissue degeneration: apparent absence of weight loss or major organ tissue degeneration
[4]
  fraction unbound: 0.33
  serum binding: 67%

## Nc1nc2ncc(CNc3ccc(C(=O)N[C@@H](CCC(=O)O)C(=O)O)cc3)nc2c(=O)[nH]1 [folic acid]
Folate receptors (FRs)
  relative affinity: 1

## CCCC(=O)OCN(C(=O)[C@@H](NC(=O)[C@H]1CCCCN1C)C(C)CC)[C@H](C[C@@H](OC(C)=O)c1nc(C(=O)N[C@@H](Cc2ccc(O)cc2)C[C@H](C)C(=O)O)cs1)C(C)C (stereo partly drawn) [tubulysin B, reference compound]
s.c. tumors
  complete or partial responses: 0/5
[3]; FIG. 9 and 10, 0.1, 0.2, 0.5 μmol/kg TIW
  toxicity (dosing terminated early in each cohort): excessive toxicity
[3]; FIG. 10, 0.1, 0.2, 0.5 μmol/kg TIW, compared to controls
  change in percent body weight: dramatic change
